Assay results published in the supplement of paper PMC10567573.

B1: ZNF75A (parent)
chain: RTHTGEQPYTCSICRRNFSRRSSL

Variants of: B1
Assay: protein stability index of a GFP-peptide fusion (GPS, HEK-293T) (PSI 1-6); higher = more stable
Conditions: c terminus: a fixed tail appended
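Note: lentivirally expressed fusions sorted by FACS into six bins by GFP to DsRed ratio, PSI derived from sequencing read proportions per bin multiplied by bin number.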

Protein stability index of substitutions, site by site:
N17: M 2.3; R 2.99; A 3.22; F 2.36; G 2.75; Y 2.63; E 2.19; Q 3.17; L 1.88; K 3.78; H 2.61; S 2.74; W 2.46; C 3.01; V 2.62; D 2.3; I 2.18; T 3.5
R16: K 2.92; H 1.59; Q 2.99; A 1.99; N 1.99; E 2.53; T 2.34; M 2.43; I 1.88; W 1.37; C 1.34; F 1.81; P 2.3; V 1.79; S 1.86; D 1.78; L 1.27; G 2.05; Y 1.59
S12: V 2.98; F 2.83; G 2.38; H 3.13; E 2.26; W 2.21; Y 2.81; K 2.63; M 2.41; N 2.52; Q 2.61; D 3.1; I 2.53; T 2.82; P 3.14; R 3.07; L 2.04; C 2.4; A 2.21
Q7: F 2.8; H 2.63; G 2.45; L 2.7; K 2.59; A 3.14; E 3.43; V 2.41; N 2.6; I 2.63; R 2.96; C 4.67; S 2.24; D 3.42; T 2.49; Y 2.36; W 2.83; M 2.68; P 2.57
E6: R 2.58; S 2.3; Y 2.44; Q 2.62; G 2.55; I 3.05; T 2.94; K 2.97; P 2.63; W 2.02; H 3.12; V 1.93; N 2.5; L 2.52; M 2.5
C11: H 3.94; T 4.58; E 4.09; N 4; S 3.86; G 3.37; W 3.77; K 3.93; D 4.34; Y 3.3; F 3.73; P 4.22; A 3.92; M 4.07; L 3.61; R 3.74; Q 4.39; I 3.79; V 3.61
C14: H 3.87; Q 3.72; Y 3.66; S 4.04; D 3.7; A 3.67; W 2.68; G 4.72; E 4.42; K 4.03; M 3.92; V 4.03; F 3.59; I 4.01; P 3.6; L 3.5; T 4.21; N 4.11; R 4.49
T10: W 2.63; N 2.67; R 2.57; I 3.52; H 2.85; V 3.85; K 2.43; Q 2.32; S 2.01; M 3.48; E 2.37; F 2.71; A 2.85; Y 2.5; P 3.09; C 2.63; D 3.48; G 2.18; L 2.88
R21: H 2.12; I 1.61; N 2.72; W 2.69; P 1.97; K 2.5; A 1.64; G 1.72; L 1.79; V 1.95; C 2.24; Y 1.39; T 2.84; E 3.51; M 2.37; Q 3.09; S 1.58; D 2.73; F 1.95
I13: R 2.96; E 2.71; D 2.65; N 3.72; Q 2.74; V 3.18; Y 1.96; S 2.71; P 3.44; T 2.7; G 2.42; K 3.5; A 2.54; H 2.81; M 2.21; F 2.65; C 2.71; W 2.51; L 2.25
R20: N 2.19; L 2.56; M 2.15; V 2.46; F 1.72; D 2.46; H 2.53; K 2.12; Q 2.13; E 1.83; A 2.67; T 2.59; Y 2.24; P 2.36; G 3.5; W 1.52; C 2.4; S 1.93; I 1.73
S22: C 2.64; V 2.93; T 3.27; P 2.76; A 2.86; K 3.16; D 2.3; N 2.65; G 2.51; L 2.91; R 3.55; Y 2.99; F 2.81; H 3.5; M 2.25; E 2.77; Q 2.77; W 2.42; I 2.77
S19: F 2.59; Y 4.33; C 2.52; W 2.21; K 2.91; R 2.99; M 2.68; V 2.4; D 2.67; E 3.05; G 2.68; T 3.25; P 2.23; Q 2.72; A 2.04; L 2.51; H 2.62; N 3.59; I 3.39
Y9: C 4.17; R 2.46; P 2.69; E 3.15; N 2.56; D 2.92; S 2.55; M 2.27; I 2.71; T 2.51; V 2.58; F 2.64; K 2.17; H 3.02; Q 2.32; W 3.02; L 2.39; A 2.68; G 3.29
S23: F 1.78; G 2.76; M 2.33; A 2.67; T 2.72; D 2.28; Q 2.04; I 2.13; L 2.15; P 2.94; H 2.32; R 2.9; E 2.17; C 2.85; K 3.2; N 2.63
R15: F 1.85; C 2; E 2.03; N 2.84; A 2.13; T 2.34; P 3.19; G 2.93; D 2.02; Q 2.25; H 2.49; V 1.7; I 2.32; K 2.86; Y 1.89; L 1.54; M 1.6; W 2.02; S 2.47
P8: R 2.35; G 3.4; Q 2.85; I 2.99; T 3.76; L 2.87; M 3.06; W 3.05; Y 3.16; N 3.01; C 2.52; F 3.09; H 3.19; A 2.97; E 3.95; V 3.4; K 3.13; D 3.4; S 2.81
F18: Y 2.61; P 2.14; D 2.76; L 2.21; W 2.31; I 2.28; K 2.6; V 2.8; A 3.47; C 2.57; T 2.28; G 2.38; S 2.69; E 1.74; H 2.83; M 2.49; N 2.29; Q 2.41; R 3.99
